Target: T1, human serum albumin (human, UniProt P02768 25-609)
T1 construct: also called HSA
Assay: ProteOn SPR, capture on immobilised HSA
Experimental: In case of binding of pre-existing antibodies on Nanobodies captured on human serum albumin (HSA) was evaluated using the ProteOn XPR36 (Bio-Rad Laboratories, Inc.). PBS/Tween (phosphate buffered saline, pH7.4, 0.005% Tween20) was used as running buffer and the experiments were performed at 25° C. The ligand lanes of a ProteOn GLC Sensor Chip were activated with EDC/NHS (flow rate 30 μl/min) and HSA was injected at 10 μg/ml in ProteOn Acetate buffer pH4.5 (flow rate 100 μl/min) to render immobilization levels of approximately 3200 RU. After immobilization, surfaces were deactivated with ethanolamine HCl (flow rate 30 μl/min). Nanobodies were injected for 2 minutes at 45 μl/min over the HSA surface to render a Nanobody capture level of approximately 200 RU. The samples containing pre-existing antibodies were centrifuged for 2 minutes at 14,000 rpm and supernatant was diluted 1:10 in PBS-Tween20 (0.005%) before being injected for 2 minutes at 45 μl/min followed by a subsequent 400 seconds dissociation step. After each cycle (i.e. before a new Nanobody capture and blood sample injection step) the HSA surfaces were regenerated with a 2 minute injection of HCl (100 mM) at 45 μl/min. Sensorgram processing and data analysis was performed with ProteOn Manager 3.1.0 (Bio-Rad Laboratories, Inc.). Sensorgrams showing pre-existing antibody binding were obtained after double referencing by subtracting 1) Nanobody-HSA dissociation and 2) non-specific binding to reference ligand lane.

Row | binding result | Binder
1 | binds | Reference D (SEQ ID NO: 4) (VHH, Captured on human serum albumin; also called DOM7r-92-104) VHH: EVQLLESGGGLVQPGGSLRLSCAASGFTFDTSSMLWVRQAPGKGLEWVSVIHQSGTPTYYADSVKGRFTISRDNSKNTLYLQMNSLRAEDTAVYYCAKFPSSRMKFDYWGQGTLVTVSS
2 | binds | Reference D+L11V+V89L+T110K (SEQ ID NO: 94) (VHH) VHH: EVQLLESGGGVVQPGGSLRLSCAASGFTFDTSSMLWVRQAPGKGLEWVSVIHQSGTPTYYADSVKGRFTISRDNSKNTLYLQMNSLRAEDTALYYCAKFPSSRMKFDYWGQGTLVKVSS

The next lines start with the binder.

Row | Binder | binding result
3 | Reference C (SEQ ID NO: 3) (VHH, Heavy-chain immunoglobulin single variable domain (VH-derived domain antibody); Captured on human serum albumin; also called DOM7r-92-100) VHH: EVQLLESGGGLVQPGGSLRLSCAASGFTFDTSSMLWVRQAPGKGLEWVSVIHQSGTPTYYADSVKGRFTISRDNSKNTLYLQMNSLRAEDTAVYYCAKFPSSRMKFDYWGQGTLVTVSS | binds
4 | Reference D+L11V+V89L (SEQ ID NO: 93) (VHH) VHH: EVQLLESGGGVVQPGGSLRLSCAASGFTFDTSSMLWVRQAPGKGLEWVSVIHQSGTPTYYADSVKGRFTISRDNSKNTLYLQMNSLRAEDTALYYCAKFPSSRMKFDYWGQGTLVTVSS | binds

Source: patent US20180312578A1 (Ablynx, published 2018)
